According to the supplement of paper PMC9233669:
Variants at the floor of the assay were thinned out.

What was measured:
biotinyl-Val-oxazolone = assay: self-aminoacylation, catalytic enhancement (BVO) (fold over background); higher = more active; k-Seq, kA / k0A0; sequences stand for … in GGGAAUGGAUCCACAUCUACGAAUUC…UUCACUGCAGACUUGACGAAGCUG
Method in brief: (§1)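 Working in 50 μL HEPES/NaCl/KCl/MgCl2/CaCl2 buffer with 5% acetonitrile at pH 6.9–7.0, mutagenized RNA pools (0.43 μM; 21-nt variable region) were reacted with 2–1250 μM of each biotinyl-aminoacyl-oxazolone for 90 minutes at room temperature. Streptavidin capture followed, with quantification by triplicate qPCR and Illumina sequencing. Catalytic enhancement is reported as median kA over the uncatalyzed rate, the low-activity peak of a bimodal Gaussian fit to the data.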

biotinyl-Phe-oxazolone = assay: self-aminoacylation, catalytic enhancement (BFO) (fold over background); higher = more active; k-Seq, kA / k0A0; sequences stand for … in GGGAAUGGAUCCACAUCUACGAAUUC…UUCACUGCAGACUUGACGAAGCUG
Method in brief: as §1

biotinyl-Ile-oxazolone = assay: self-aminoacylation, catalytic enhancement (BIO) (fold over background); higher = more active; k-Seq, kA / k0A0; sequences stand for … in GGGAAUGGAUCCACAUCUACGAAUUC…UUCACUGCAGACUUGACGAAGCUG
Method in brief: as §1

biotinyl-Leu-oxazolone = assay: self-aminoacylation, catalytic enhancement (BLO) (fold over background); higher = more active; k-Seq, kA / k0A0; sequences stand for … in GGGAAUGGAUCCACAUCUACGAAUUC…UUCACUGCAGACUUGACGAAGCUG
Method in brief: as §1

biotinyl-Trp-oxazolone = assay: self-aminoacylation, catalytic enhancement (BWO) (fold over background); higher = more active; k-Seq, kA / k0A0; sequences stand for … in GGGAAUGGAUCCACAUCUACGAAUUC…UUCACUGCAGACUUGACGAAGCUG
Method in brief: as §1

biotinyl-Met-oxazolone = assay: self-aminoacylation, catalytic enhancement (BMO) (fold over background); higher = more active; k-Seq, kA / k0A0; sequences stand for … in GGGAAUGGAUCCACAUCUACGAAUUC…UUCACUGCAGACUUGACGAAGCUG
Method in brief: as §1

Sequence	self-aminoacylation (biotinyl-Val-oxazolone)	self-aminoacylation (biotinyl-Phe-oxazolone)	self-aminoacylation (biotinyl-Ile-oxazolone)	self-aminoacylation (biotinyl-Leu-oxazolone)	self-aminoacylation (biotinyl-Trp-oxazolone)	self-aminoacylation (biotinyl-Met-oxazolone)
AUUCACCUAGGUCGUCGGGUA [Fam2.2 aminoacylation ribozyme variant]	1.95	6.61	1.85	2.71	1.95	2.24
AUUCACCUAGGUCGUGGGGUG [Fam2.2 aminoacylation ribozyme variant]	1.61	5.74	1.54	1.97	1.66	1.5
AUUCACCUAGGUCGUUGGGUG [Fam2.2 aminoacylation ribozyme variant]	1.2	3.95	1.35	1.52	1.23	1.42
AUUCACCUAGGUCUUCCGGUG [Fam2.2 aminoacylation ribozyme variant]	7	99.3	7.6	17.2	12.2	11.2
AUUCACCUAGGUCUUCGAGUG [Fam2.2 aminoacylation ribozyme variant]	2.13	9.5	2.03	3.65	3.26	2.99
AUUCACCUAGGUCUUCGGGCG [Fam2.2 aminoacylation ribozyme variant]	2.83	13.6	2.8	5.23	2.99	3.94
AUUCACCUAGGUCUUGGGGUG [Fam2.2 aminoacylation ribozyme variant]	6.44	77.3	5.73	13.8	9.73	11.2
AUUCACCUAGGUGAUCGCGUG [Fam2.2 aminoacylation ribozyme variant]	2.31	14.6	2.69	4.17	2.83	2.86
AUUCACCUAGGUGAUCGGGCG [Fam2.2 aminoacylation ribozyme variant]	3.62	12.5	3.28	4.11	3.84	3.9
AUUCACCUAGGUGAUGGGGUG [Fam2.2 aminoacylation ribozyme variant]	2.21	14.4	2.02	2.81	2.65	2.65
AUUCACCUAGGUGCUCGGGUG [Fam2.2 aminoacylation ribozyme variant]	3.1	31.1	3.07	4.46	3.64	3.67
AUUCACCUAGGUGUUCGGGUG [Fam2.2 aminoacylation ribozyme variant]	2.93	21.7	2.79	4.31	3.74	3.31
AUUCACCUAGGUUACCGGGUG [Fam2.2 aminoacylation ribozyme variant]	2.63	18.5	2.49	3.98	3.78	3.68
AUUCACCUAGGUUAUCGGGAG [Fam2.2 aminoacylation ribozyme variant]	1.55	0.308	1.21	1.17	0.528	1.17
AUUCACCUAGGUUAUCGGGUC [Fam2.2 aminoacylation ribozyme variant]	1.08	1.59	1.2	1.11	0.944	1.13
AUUCACCUAGGUUAUCGGGUG [Fam2.2 aminoacylation ribozyme variant]	3.15	28	2.89	5.2	4.33	4.34
AUUCACCUAGGUUAUCUGGUG [Fam2.2 aminoacylation ribozyme variant]	2.95	35.2	3.02	5.96	4.49	5.29
AUUCACCUAGGUUAUGGGGUG [Fam2.2 aminoacylation ribozyme variant]	4.76	78.4	5.44	11.2	8.28	8.25
AUUCACCUAGGUUUUCGGGUG [Fam2.2 aminoacylation ribozyme variant]	3.5	34.3	3.03	5.21	4.06	4.67
AUUCACCUAGUUAAUCGGGUG [Fam2.2 aminoacylation ribozyme variant]	2.04	20	2.01	3.98	3.53	3.08
AUUCACCUAGUUCAACGGGUG [Fam2.2 aminoacylation ribozyme variant]	1.73	17.1	1.65	2.88	2.46	2.42
AUUCACCUAGUUCAUCGGAUG [Fam2.2 aminoacylation ribozyme variant]	0.951	0.611	0.963	0.819	0.827	1.03

Sequence	self-aminoacylation (biotinyl-Val-oxazolone)	self-aminoacylation (biotinyl-Phe-oxazolone)	self-aminoacylation (biotinyl-Ile-oxazolone)	self-aminoacylation (biotinyl-Leu-oxazolone)	self-aminoacylation (biotinyl-Trp-oxazolone)	self-aminoacylation (biotinyl-Met-oxazolone)
AUUCACCUAGUUCAUCGGUUG [Fam2.2 aminoacylation ribozyme variant]	1.09	0.483	1.09	1.11	0.661	0.932
AUUCACCUAGUUCAUCUGGUG [Fam2.2 aminoacylation ribozyme variant]	1.5	10.4	1.56	2.44	2.4	1.88
AUUCACCUAGUUCCUCGGGUG [Fam2.2 aminoacylation ribozyme variant]	2.06	19.7	2.06	3.31	2.63	2.42
AUUCACCUAGUUCGUCGGGUG [Fam2.2 aminoacylation ribozyme variant]	1.23	3.17	1.14	1.32	1.15	1.26
AUUCACCUAGUUUAUCGGGUG [Fam2.2 aminoacylation ribozyme variant]	2.61	21.2	2.39	3.48	4.61	3.75
AUUCACCUAUCUCAUCGGGUG [Fam2.2 aminoacylation ribozyme variant]	2.09	19.4	2.18	4.13	3.46	3.1
AUUCACCUAUGUAAUCGGGUG [Fam2.2 aminoacylation ribozyme variant]	2.91	36.4	3.11	7.44	5.74	5.17
AUUCACCUAUGUCAUAGGGUG [Fam2.2 aminoacylation ribozyme variant]	1.15	1.08	1.36	1.75	0.856	1.46
AUUCACCUAUGUCAUCAGGUG [Fam2.2 aminoacylation ribozyme variant]	1.64	8.58	1.72	2.75	2.33	2.39
AUUCACCUAUGUCAUCGGUUG [Fam2.2 aminoacylation ribozyme variant]	0.872	0.455	0.902	0.919	0.892	0.874
AUUCACCUAUGUCAUCUGGUG [Fam2.2 aminoacylation ribozyme variant]	1.62	1.9	1.79	2.51	2.01	2.04
AUUCACCUAUGUUAUCGGGUG [Fam2.2 aminoacylation ribozyme variant]	3.43	41.3	3.19	7.49	5.74	5.62
AUUCACCUCAGUCAUCGGGUG [Fam2.2 aminoacylation ribozyme variant]	4.58	56.6	4.75	8.93	6.63	7.34
AUUCACCUCGCUCAUCGGGUG [Fam2.2 aminoacylation ribozyme variant]	2.74	13.5	2.57	3.61	3.01	3.42
AUUCACCUCGGCCAUCGGGUG [Fam2.2 aminoacylation ribozyme variant]	5.61	56.7	4.23	7.44	6.78	6.8
AUUCACCUCGGUCACCGGGUG [Fam2.2 aminoacylation ribozyme variant]	4.43	41.9	5	6.77	8.88	6.37
AUUCACCUCGGUCAUGGGGUG [Fam2.2 aminoacylation ribozyme variant]	2.96	28	2.57	4.31	4.7	3.94
AUUCACCUCGGUCAUUGGGUG [Fam2.2 aminoacylation ribozyme variant]	2.91	35.5	3.14	5.53	4.34	4.91
AUUCACCUCGGUCCUCGGGUG [Fam2.2 aminoacylation ribozyme variant]	4.23	53.2	4.17	7.19	7.07	6.33
AUUCACCUCGGUGAUCGGGUG [Fam2.2 aminoacylation ribozyme variant]	4.6	28.3	4.21	5.47	6	4.66
AUUCACCUGGGUCAUCGAGUG [Fam2.2 aminoacylation ribozyme variant]	2.59	3.55	2.4	4.18	3.74	3.54
